Positions of bridges follow the written chain, without caps; N, C: chain ends. Residues, ends and D or L forms follow the SMILES beside them. *: point of attachment. X1 = CC[N+]1=C(/C=C/C=C/C=C2/N(CCCCCC(=O)*)c3ccc(S(=O)(=O)O)cc3C2(C)C)C(C)(C)c2cc(S(=O)(=O)[O-])ccc21; X3 = C[N+]1=C(/C=C/C=C/C=C2/N(CCCCCC(=O)*)c3ccccc3C2(C)C)C(C)(C)c2cc(S(=O)(=O)[O-])ccc21; X2 = NC(=O)COCC(=O)NCCOCCOCCOCCN*

The nature of the series: in vitro. The conditions noted are these: blood plasma. How it is done: Protein Binding Analysis of Dye Conjugates Containing 1, 2 and 4 Sulphonic Acid Groups
An analysis of protein binding of the dye conjugates of the invention was performed by an equilibrium dialysis and rate dialysis as described in the book “Protein-Ligand Interactions: Hydrodynamics and calorimetry”, edited by Stephen E. Harding and Babur Z. Chowdhry, Oxford University Press, published 2001, chapter 2 by Bent Honoré, Department of Medical Biochemisty, University of Aarhus.
Usually fraction unbound stands for free concentration divided by total concentration. Higher therefore signals weak binding. On to `CC[N+]1=C(/C=C/C=C/C=C2/N(CCCCCC(=O)NCCCC[C@@H]3NC(=O)CSC[C@@H](C(=O)NCCOCCOCCOCCNC(=O)COCC(N)=O)NC(=O)[C@H](Cc4ccccc4)NC(=O)[C@@H]4CSSC[C@H](NC3=O)C(=O)N[C@@H](CCCNC(=N)N)C(=O)NCC(=O)N[C@@H](CC(=O)O)C(=O)N4)c3ccc4c(S(=O)(=O)O)cc(S(=O)(=O)O)cc4c3C2(C)C)C(C)(C)c2c1ccc1c(S(=O)(=O)O)cc(S(=O)(=O)O)cc21` [Compound C], for which the fraction unbound was 0.55. Then `CC[N+]1=C(/C=C/C=C/C=C2/N(CCCCCC(=O)NCCCC[C@@H]3NC(=O)CSC[C@@H](C(=O)NCCOCCOCCOCCNC(=O)COCC(N)=O)NC(=O)[C@H](Cc4ccccc4)NC(=O)[C@@H]4CSSC[C@H](NC3=O)C(=O)N[C@@H](CCCNC(=N)N)C(=O)NCC(=O)N[C@@H](CC(=O)O)C(=O)N4)c3ccc(S(=O)(=O)O)cc3C2(C)C)C(C)(C)c2cc(S(=O)(=O)[O-])ccc21` [Compound B, Cys2-6; c[CH2CO-Lys(Cy5 bis-SO3)-Cys-Arg-Gly-Asp-Cys-Phe-Cys]-(PEG)n-NH2 (n=1)] ({CH2CO}-K(X1)CRGDCFC-X2; disulfide 2-6; thioether N-8), with 0.79; and `C[N+]1=C(/C=C/C=C/C=C2/N(CCCCCC(=O)NCCCC[C@@H]3NC(=O)CSC[C@@H](C(=O)NCCOCCOCCOCCNC(=O)COCC(N)=O)NC(=O)[C@H](Cc4ccccc4)NC(=O)[C@@H]4CSSC[C@H](NC3=O)C(=O)N[C@@H](CCCNC(=N)N)C(=O)NCC(=O)N[C@@H](CC(=O)O)C(=O)N4)c3ccccc3C2(C)C)C(C)(C)c2cc(S(=O)(=O)[O-])ccc21` [Compound A, Cys2-6; c[CH2CO-Lys(Cy5 mono-SO3)-Cys-Arg-Gly-Asp-Cys-Phe-Cys]-(PEG)n-NH2 (n=1)] ({CH2CO}-K(X3)CRGDCFC-X2; disulfide 2-6; thioether N-8), with 0.83.

These data come from patent US7897142B2, “Peptide based-compounds” (GE Healthcare AS, priority 2004, dated 2011).
